The values below come from IntAct's records for PubMed 22056988.

B1: Catenin beta-1 (Homo sapiens), P35222 (parent)
chain: MATQADLMELDMAMEPDRKAAVSHWQQQSYLDSGIHSGATTTAPSLSGKGNPEEEDVDTSQVLYEWEQGFSQSFTQEQVADIDGQYAMTRAQRVRAAMFPETLDEGMQIPSTQFDAAHPTNVQRLAEPSQMLKHAVVNLINYQDDAELATRAIPELTKLLNDEDQVVVNKAAVMVHQLSKKEASRHAIMRSPQMVSAIVRTMQNTNDVETARCTAGTLHNLSHHREGLLAIFKSGGIPALVKMLGSPVDSVLFYAITTLHNLLLHQEGAKMAVRLAGGLQKMVALLNKTNVKFLAITTDCLQILAYGNQESKLIILASGGPQALVNIMRTYTYEKLLWTTSRVLKVLSVCSSNKPAIVEAGGMQALGLHLTDPSQRLVQNCLWTLRNLSDAATKQEGMEGLLGTLVQLLGSDDINVVTCAAGILSNLTCNNYKNKMMVCQVGGIEALVRTVLRAGDREDITEPAICALRHLTSRHQEAEMAQNAVRLHYGLPVVVKLLHPPSHWPLIKATVGLIRNLALCPANHAPLREQGAIPRLVQLLVRAHQDTQRRTSMGGTQQQFVEGVRMEEIVEGCTGALHILARDVHNRIVIRGLNTIPLFVQLLYSPIENIQRVAAGVLCELAQDKEAAEAIEAEGATAPLTELLHSRNEGVATYAAAVLFRMSEDKPQDYKKRLSVELTSSLFRTEPMAWNETADLGLDIGAQGEPLGYRQDDPSYRSFHSGGYGQDALGMDPMMEHEMGGHHPGADYPVDGLPDLGHAQDLMDGLPPGDSNQLAWFDTDL

In this assay the parent is B1. The note with it: with src_human SRC.
On to Y333F, for which the “effect of a mutation on the interaction” value is “decreasing interaction”.
